Measurements as given in IntAct's records for PubMed 17292836.

B1: 26S proteasome non-ATPase regulatory subunit 10 (Mus musculus), Q9Z2X2 (parent)
chain: MEGCVSNIMICNLAYSGKLDELKERILADKSLATRTDQDSRTALHWACSAGHTEIVEFLLQLGVPVNDKDDAGWSPLHIAASAGRDEIVKALLVKGAHVNAVNQNGCTPLHYAASKNRHEIAVMLLEGGANPDAKDHYDATAMHRAAAKGNLKMVHILLFYKASTNIQDTEGNTPLHLACDEERVEEAKFLVTQGASIYIENKEEKTPLQVAKGGLGLILKRLAESEEASM
partner: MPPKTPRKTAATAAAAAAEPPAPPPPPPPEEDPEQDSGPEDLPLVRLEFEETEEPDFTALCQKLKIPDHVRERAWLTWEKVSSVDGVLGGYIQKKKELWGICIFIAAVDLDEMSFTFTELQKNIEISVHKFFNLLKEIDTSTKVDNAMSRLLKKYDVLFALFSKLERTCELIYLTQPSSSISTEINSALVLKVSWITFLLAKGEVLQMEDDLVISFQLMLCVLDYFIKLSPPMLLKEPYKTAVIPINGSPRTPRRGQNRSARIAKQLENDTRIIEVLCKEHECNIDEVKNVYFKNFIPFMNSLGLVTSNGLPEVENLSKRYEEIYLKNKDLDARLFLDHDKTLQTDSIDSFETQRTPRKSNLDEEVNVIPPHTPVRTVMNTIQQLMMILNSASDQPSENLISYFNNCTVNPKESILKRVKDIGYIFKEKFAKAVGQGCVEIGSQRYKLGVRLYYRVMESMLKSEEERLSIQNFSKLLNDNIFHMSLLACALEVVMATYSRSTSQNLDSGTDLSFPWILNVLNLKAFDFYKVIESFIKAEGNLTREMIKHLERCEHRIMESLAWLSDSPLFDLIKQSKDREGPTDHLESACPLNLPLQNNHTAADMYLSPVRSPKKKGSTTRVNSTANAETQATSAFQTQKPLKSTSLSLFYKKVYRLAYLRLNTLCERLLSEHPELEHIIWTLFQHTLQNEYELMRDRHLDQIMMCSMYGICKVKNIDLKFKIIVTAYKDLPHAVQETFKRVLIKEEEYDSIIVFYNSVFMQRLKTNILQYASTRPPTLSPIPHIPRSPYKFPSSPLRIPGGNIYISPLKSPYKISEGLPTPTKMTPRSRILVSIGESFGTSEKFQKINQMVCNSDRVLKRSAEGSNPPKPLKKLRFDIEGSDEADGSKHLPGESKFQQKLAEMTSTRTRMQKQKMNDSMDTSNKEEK

Variants of: B1
Details: with rb_human RB1, P06400

**Q.** E182A was tested. Which “effect of a mutation on the interaction” value did it give?
**A.** Its value is “disrupting interaction”.
